The target of assay [1] is SK.Plg* activator complex of SKC1 (αG88-β_(STAB)-γG88) (group G streptococcus (GGS), G88 | group A streptococcus (GAS), STAB902 | not stated).
The target in assay [2] is SK.Plg* activator complex of SKC2 (α_(STAB)-βG88-γ_(STAB)) (group A streptococcus (GAS), STAB902 | group G streptococcus (GGS), G88 | not stated).

As to plasminogen (natural protein), the K m (µM), proteolytic constants: Plg activation by the SK.Plg* complex against substrate Plg 0.3 to 5.0 µM, S2251 hydrolysis at 405 nm, 37 °C was 1.09 µM in assay [1] and 3.73 µM in assay [2].
